Source: article PMC7835227 (Scientific Reports, 2021)
Each block holds one binder with its values, some of them ahead of it.

How the values were obtained:
[1] = target: T1, GYM329 (human); experiment: SPR; Biacore T200, 25 °C, pH 6.0, PB-P+; antibody captured by protein L immobilised on a CM5 chip; FcRn as analyte, two-fold dilutions 15-240 nmol/L (GYM329) or 250-4000 nmol/L (trastuzumab); steady state model; conditions: both partners purified
T1 construct: light chain of GYM329 (humanized, engineered MST1032); Made a molecule only as the ligand of Fc receptors (FcγRs, FcRn); Captured by protein L in the assays; also called anti-latent myostatin sweeping antibody; source: Chinese hamster ovary cells, stably expressed, purified (protein A)

[2] = target: T2, reference wild type human IgG1 (with trastuzumab Fab) (human); experiment: as above; conditions: both partners purified
T2 construct: heavy variable domain of trastuzumab; wild type human IgG1 heavy constant region; light chain of trastuzumab; Ligand of FcRn here; The supplement says that recombinant antibodies other than GYM329 and GYM-cyFc were expressed transiently in FreeStyle293-F and purified with protein A

T1 sequence (heavy, as listed by the source, chain 1 of 2): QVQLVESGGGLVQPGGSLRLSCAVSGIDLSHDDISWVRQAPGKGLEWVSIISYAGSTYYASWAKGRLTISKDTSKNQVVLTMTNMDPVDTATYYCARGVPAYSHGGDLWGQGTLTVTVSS
T1 sequence (light, as listed by the source, chain 2 of 2): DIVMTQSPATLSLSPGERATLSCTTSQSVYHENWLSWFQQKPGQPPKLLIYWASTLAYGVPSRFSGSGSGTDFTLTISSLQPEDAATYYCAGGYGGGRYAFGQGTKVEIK

Kd [1]: 104 nM
B1: cynomolgus monkey FcRn (receptor)
chain 1: AESHLSLLYHLTAVSSPAPGTPAFWVSGWLGPQQYLSYDSLRGQAEPCGAWVWENQVSWYWEKETTDLRIKEKLFLEAFKALGGKGPYTLQGLLGCELSPDNTSVPTAKFALNGEEFMNFDLKQGTWGGDWPEALAISQRWQQQDKAANKELTFLLFSCPHRLREHLERGRGNLEWKEPPSMRLKARPGNPGFSVLTCSAFSFYPPELQLRFLRNGMAAGTGQGDFGPNSDGSFHASSSLTVKSGDEHHYCCIVQHAGLAQPLRVELETPAKSS
chain 2: IQRTPKIQVYSRHPPENGKPNFLNCYVSGFHPSDIEVDLLKNGEKMGKVEHSDLSFSKDWSFYLLYYTEFTPNEKDEYACRVNHVTLSGPRTVKWDRDM
modifications: limits not given; soluble ectodomain taken from the UniProt extracellular feature, with beta-2-microglobulin as obligate subunit by convention

Kd [2]: 1530 nM
B2: cynomolgus monkey FcRn (receptor)
chain 1: B1 chain 1
chain 2: B1 chain 2
